The target of one experiment is T1, CD40 (human, UniProt P25942 21-193).
T1 construct: In the reporter assay it is whole, on GS-H2-huCD40 cells; also called huCD40
Briefly: CD40 binding (method not given).

The target of another experiment is T2, CD19 (UniProt P15391 20-556, limits assumed).
T2 construct: whole, on cells
T2 sequence (looked up): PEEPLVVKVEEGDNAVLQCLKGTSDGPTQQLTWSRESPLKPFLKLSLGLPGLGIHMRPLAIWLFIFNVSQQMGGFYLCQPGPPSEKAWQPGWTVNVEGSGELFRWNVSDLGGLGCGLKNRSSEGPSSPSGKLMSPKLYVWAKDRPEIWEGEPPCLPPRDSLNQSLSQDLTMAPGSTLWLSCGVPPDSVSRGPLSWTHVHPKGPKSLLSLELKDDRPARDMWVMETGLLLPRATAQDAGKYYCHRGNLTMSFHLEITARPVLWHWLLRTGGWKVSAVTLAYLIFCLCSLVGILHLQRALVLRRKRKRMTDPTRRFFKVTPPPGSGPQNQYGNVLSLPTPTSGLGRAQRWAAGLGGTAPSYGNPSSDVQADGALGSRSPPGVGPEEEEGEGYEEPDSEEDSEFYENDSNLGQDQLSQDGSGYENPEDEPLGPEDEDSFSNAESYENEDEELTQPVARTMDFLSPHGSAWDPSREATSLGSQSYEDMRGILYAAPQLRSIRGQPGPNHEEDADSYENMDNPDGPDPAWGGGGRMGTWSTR
Briefly: FCM or ELISA (graded summary table). For orientation: In an ELISA, binding on a coated surface is turned into a signal by an enzyme label.

The target of a further experiment is T3, CD137 (human, UniProt Q07011 24-186).
T3 construct: In the reporter assay it is whole, on GS-H2-huCD137 cells; also called 4-1BB; huCD137
The experiment is described as follows: CD137 binding (method not given).

T1 sequence (P25942 21-193 limits assumed): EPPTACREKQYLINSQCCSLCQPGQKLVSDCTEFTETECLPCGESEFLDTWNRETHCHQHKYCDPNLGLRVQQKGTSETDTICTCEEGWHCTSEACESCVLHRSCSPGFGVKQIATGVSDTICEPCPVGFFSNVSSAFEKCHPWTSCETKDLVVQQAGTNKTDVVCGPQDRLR

B1: TM383 (antibody, V domains shown)
VH: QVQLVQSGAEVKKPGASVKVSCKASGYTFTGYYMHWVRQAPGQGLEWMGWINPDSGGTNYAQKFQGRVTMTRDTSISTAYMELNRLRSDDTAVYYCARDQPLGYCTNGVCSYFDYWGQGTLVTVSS
VL: DIQMTQSPSSVSASVGDRVTITCRASQGIYSWLAWYQQKPGKAPNLLIYTASTLQSGVPSRFSGSGSGTDFTLTISSLQPEDFATYYCQQANIFPLTFGGGTKVEIK
notes: Parent mAb; also called Anti-CD40 TM383; parent CD40 mAb
As for B1, a half-maximal response with CD40 (EC50) required 0.48 µg/mL.

B2: Ly238 (antibody, V domains shown)
VH: QVQLQQSGAELVRPGSSVKISCKASGYAFSSYWMNWVKQRPGQGLEWIGQIWPGDGDTNYNGKFKGKATLTADESSSTAYMQLSSLASEDSAVYFCARRETTTVGRYYYAMDYWGQGTTVTVSS
VL: DIQLTQSPASLAVSLGQRATISCKASQSVDYDGDSYLNWYQQIPGQPPKLLIYDASNLVSGIPPRFSGSGSGTDFTLNIHPVEKVDAATYHCQQSTEDPWTFGGGTKLEIK
notes: Parent mAb; also called Anti-CD19 Ly238; parent anti-CD19 mAb
As to B2, the binding result with CD19 is listed as “binds”.

B3: Ly2278 (bispecific antibody)
chain 1: QVQLQQSGAELVRPGSSVKISCKASGYAFSSYWMNWVKQRPGQGLEWIGQIWPGDGDTNYNGKFKGKATLTADESSSTAYMQLSSLASEDSAVYFCARRETTTVGRYYYAMDYWGQGTTVTVSSASTKGPSVFPLAPSSKSTSGGTAALGCLVKDYFPEPVTVSWNSGALTSGVHTFPAVLQSSGLYSLSSVVTVPSSSLGTQTYICNVNHKPSNTKVDKKVEPKSCGGGGSGGGGSGGGGSGGGGSEVQLVESGGGLVQPGGSLRLSCAASGFTFSTYAMNWVRQAPGKGLEWVGRIRSKYNNYATYYADSVKGRFTISRDDSKNSLYLQMNSLKTEDTAVYYCVRHGNFGNSYVSWFAYWGQGTLVTVSSGGGGSDKTHTCPPCPAPEAAGPSVFLFPPKPKDTLMISRTPEVTCVVVDVSHEDPEVKFNWYVDGVEVHNAKTKPREEQYNSTYRVVSVLTVLHQDWLNGKEYKCKVSNKALPAPIEKTISKAKGQPREPQVYTLPPSREEMTKNQVSLWCLVKGFYPSDIAVEWESNGQPENNYKTTPPVLDSDGSFFLYSKLTVDKSRWQQGNVFSCSVMHEALHNHYTQKSLSLSPG
chain 2: QVQLQQSGAELVRPGSSVKISCKASGYAFSSYWMNWVKQRPGQGLEWIGQIWPGDGDTNYNGKFKGKATLTADESSSTAYMQLSSLASEDSAVYFCARRETTTVGRYYYAMDYWGQGTTVTVSSASTKGPSVFPLAPSSKSTSGGTAALGCLVKDYFPEPVTVSWNSGALTSGVHTFPAVLQSSGLYSLSSVVTVPSSSLGTQTYICNVNHKPSNTKVDKKVEPKSCGGGGSGGGGSGGGGSGGGGSQAVVTQEPSLTVSPGGTVTLTCRSSTGAVTTSNYANWVQQKPGQAPRGLIGGTNKRAPWTPARFSGSLLGGKAALTITGAQAEDEADYYCALWYSNLWVFGGGTKLTVLGGGGSDKTHTCPPCPAPEAAGPSVFLFPPKPKDTLMISRTPEVTCVVVDVSHEDPEVKFNWYVDGVEVHNAKTKPREEQYNSTYRVVSVLTVLHQDWLNGKEYKCKVSNKALPAPIEKTISKAKGQPREPQVYTLPPSREEMTKNQVSLSCAVKGFYPSDIAVEWESNGQPENNYKTTPPVLDSDGSFFLVSKLTVDKSRWQQGNVFSCSVMHEALHNRFTQKSLSLSPG
light: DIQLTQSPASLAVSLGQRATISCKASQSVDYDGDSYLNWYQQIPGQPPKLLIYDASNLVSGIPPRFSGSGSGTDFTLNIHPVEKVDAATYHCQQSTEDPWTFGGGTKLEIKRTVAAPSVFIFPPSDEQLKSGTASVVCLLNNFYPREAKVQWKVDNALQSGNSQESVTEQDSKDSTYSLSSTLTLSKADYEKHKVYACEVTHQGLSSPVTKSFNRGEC
notes: Bispecific CD19 (two Fabs) / CD3 (central Fv)
For B3, the binding result in the experiment with CD19 was “binds”.

B4: Ly2279 (bispecific antibody)
chain 1: not shown
chain 2: QVQLVQSGAEVKKPGASVKVSCKASGYTFTSYVMHWVRQKPGQGLEWIGYINPYNEGTESTDKFKGRATMTSDKSTSTVYMELSSLRSEDTAVYYCASIYYGYEGTYFGVWGQGTLVTVSSASTKGPSVFPLAPSSKSTSGGTAALGCLVKDYFPEPVTVSWNSGALTSGVHTFPAVLQSSGLYSLSSVVTVPSSSLGTQTYICNVNHKPSNTKVDKKVEPKSCGGGGSGGGGSGGGGSGGGGSDIQMTQSPSSVSASVGDRVTITCRASQGIYSWLAWYQQKPGKAPNLLIYTASTLQSGVPSRFSGSGSGTDFTLTISSLQPEDFATYYCQQANIFPLTFGGGTKVEIKGGGGSDKTHTCPPCPAPEAAGPSVFLFPPKPKDTLMISRTPEVTCVVVDVSHEDPEVKFNWYVDGVEVHNAKTKPREEQYNSTYRVVSVLTVLHQDWLNGKEYKCKVSNKALPAPIEKTISKAKGQPREPQVYTLPPSREEMTKNQVSLSCAVKGFYPSDIAVEWESNGQPENNYKTTPPVLDSDGSFFLVSKLTVDKSRWQQGNVFSCSVMHEALHNRFTQKSLSLSPG
light: EIVLTQSPATLSLSPGERATLSCRASSSVSYMHWYQQKPGQAPRPWIYATSNLASGIPARFSGSRSGTDYTLTISSLEPEDFAVYYCQQWSSNTLTFGGGTKVEIKRTVAAPSVFIFPPSDEQLKSGTASVVCLLNNFYPREAKVQWKVDNALQSGNSQESVTEQDSKDSTYSLSSTLTLSKADYEKHKVYACEVTHQGLSSPVTKSFNRGEC
notes: B7H3 Fabs, central CD40 Fv
Turning to B4, the EC50 in the experiment with CD40 was determined as 1.49 µg/mL.

B5: Ly2281 (bispecific antibody)
chain 1: QVTLKESGPALVKPTQTLTLTCTFSGFSLSTSGTCVSWIRQPPGKALEWLATICWEDSKGYNPSLKSRLTISKDTSKNQAVLTMTNMDPVDTATYYCARREDSGYFWFPYWGQGTLVTVSSASTKGPSVFPLAPSSKSTSGGTAALGCLVKDYFPEPVTVSWNSGALTSGVHTFPAVLQSSGLYSLSSVVTVPSSSLGTQTYICNVNHKPSNTKVDKKVEPKSCGGGGSGGGGSGGGGSGGGGSQVQLVQSGAEVKKPGASVKVSCKASGYTFAGFEMHWVRQAPGQGLEWMGAIDPKTGGTDYNQKFKDRVTMTRDTSISTAYMELSRLRSDDTAVYYCARDLGYFDVWGQGTLVTVSSGGGGSDKTHTCPPCPAPEAAGPSVFLFPPKPKDTLMISRTPEVTCVVVDVSHEDPEVKFNWYVDGVEVHNAKTKPREEQYNSTYRVVSVLTVLHQDWLNGKEYKCKVSNKALPAPIEKTISKAKGQPREPQVYTLPPSREEMTKNQVSLWCLVKGFYPSDIAVEWESNGQPENNYKTTPPVLDSDGSFFLYSKLTVDKSRWQQGNVFSCSVMHEALHNHYTQKSLSLSPG
chain 2: QVTLKESGPALVKPTQTLTLTCTFSGFSLSTSGTCVSWIRQPPGKALEWLATICWEDSKGYNPSLKSRLTISKDTSKNQAVLTMTNMDPVDTATYYCARREDSGYFWFPYWGQGTLVTVSSASTKGPSVFPLAPSSKSTSGGTAALGCLVKDYFPEPVTVSWNSGALTSGVHTFPAVLQSSGLYSLSSVVTVPSSSLGTQTYICNVNHKPSNTKVDKKVEPKSCGGGGSGGGGSGGGGSGGGGSDIQMTQSPSSLSASVGDRVTITCRASQDIRSNLNWYQQKPGGAVKLLIYYTSRLHSGVPSRFSGSGSGTDYTLTISSLQPEDFATYFCQQSEKLPRTFGGGTKVEIRGGGGSDKTHTCPPCPAPEAAGPSVFLFPPKPKDTLMISRTPEVTCVVVDVSHEDPEVKFNWYVDGVEVHNAKTKPREEQYNSTYRVVSVLTVLHQDWLNGKEYKCKVSNKALPAPIEKTISKAKGQPREPQVYTLPPSREEMTKNQVSLSCAVKGFYPSDIAVEWESNGQPENNYKTTPPVLDSDGSFFLVSKLTVDKSRWQQGNVFSCSVMHEALHNRFTQKSLSLSPG
light: NIQMTQSPSSLSASVGDRVTITCKAGQNVNNYLAWYQQKPGKAPKVLIFNANSLQTGVPSRFSGSGSGTDFTLTISSLQPEDFATYYCQQYNSWPTFGGGTKVEIKRTVAAPSVFIFPPSDEQLKSGTASVVCLLNNFYPREAKVQWKVDNALQSGNSQESVTEQDSKDSTYSLSSTLTLSKADYEKHKVYACEVTHQGLSSPVTKSFNRGEC
notes: PD-1 Fabs, central CD137 Fv
B5 gave an EC50 with CD137 of 2.56 µg/mL.

B6: Ly2280 (bispecific antibody)
chain 1: not shown
chain 2: QVTLKESGPALVKPTQTLTLTCTFSGFSLSTSGTCVSWIRQPPGKALEWLATICWEDSKGYNPSLKSRLTISKDTSKNQAVLTMTNMDPVDTATYYCARREDSGYFWFPYWGQGTLVTVSSASTKGPSVFPLAPSSKSTSGGTAALGCLVKDYFPEPVTVSWNSGALTSGVHTFPAVLQSSGLYSLSSVVTVPSSSLGTQTYICNVNHKPSNTKVDKKVEPKSCGGGGSGGGGSGGGGSGGGGSDIQMTQSPSSVSASVGDRVTITCRASQGIYSWLAWYQQKPGKAPNLLIYTASTLQSGVPSRFSGSGSGTDFTLTISSLQPEDFATYYCQQANIFPLTFGGGTKVEIKGGGGSDKTHTCPPCPAPEAAGPSVFLFPPKPKDTLMISRTPEVTCVVVDVSHEDPEVKFNWYVDGVEVHNAKTKPREEQYNSTYRVVSVLTVLHQDWLNGKEYKCKVSNKALPAPIEKTISKAKGQPREPQVYTLPPSREEMTKNQVSLSCAVKGFYPSDIAVEWESNGQPENNYKTTPPVLDSDGSFFLVSKLTVDKSRWQQGNVFSCSVMHEALHNRFTQKSLSLSPG
light: NIQMTQSPSSLSASVGDRVTITCKAGQNVNNYLAWYQQKPGKAPKVLIFNANSLQTGVPSRFSGSGSGTDFTLTISSLQPEDFATYYCQQYNSWPTFGGGTKVEIKRTVAAPSVFIFPPSDEQLKSGTASVVCLLNNFYPREAKVQWKVDNALQSGNSQESVTEQDSKDSTYSLSSTLTLSKADYEKHKVYACEVTHQGLSSPVTKSFNRGEC
notes: PD-1 Fabs, central CD40 Fv
With B6, the EC50 in the experiment with CD40 is 3.17 µg/mL.

As usually defined, the EC50 is the concentration giving half of the maximal effect. A low value points to higher potency in that assay.

The record behind these values is patent US20250388669A1 (published 2025).
